The source of these data is publication PMC3968096, “Discovering Aptamers by Cell-SELEX against Human Soluble Growth Factors Ectopically Expressed on Yeast Cell Surface”.

For this data set, the target named is VEGF165 (soluble) (human, UniProt P15692-4 27-191). Put plainly: F-EMSA; 1 mM Mg2+; 10 mM HEPES pH 7.9, 125 mM NaCl, 25 mM KCl, 1 mM MgCl2; F-EMSA at room temperature for 2 h, 5% PAGE at 4 C; flow cytometry in the same buffer. Particulars: protein: recombinant, chain copies: 2, label: 5' fluorescein (F-EMSA), 5' biotin (flow). In general terms: In EMSA bound probe runs differently from free probe, usually more slowly.
Sequence of VEGF165 (soluble) (P15692 other isoform, or with tags, fused parts or gaps): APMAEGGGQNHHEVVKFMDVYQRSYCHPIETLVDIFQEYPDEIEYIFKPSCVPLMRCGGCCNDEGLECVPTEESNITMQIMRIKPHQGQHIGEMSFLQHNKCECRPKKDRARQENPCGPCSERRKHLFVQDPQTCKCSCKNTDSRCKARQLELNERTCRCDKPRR

B1: hVap1_Stem (structured_DNA)
DNA: TCTAGCCCACTGCATAGAGGTAGCCACGTATGTTCGTGGCTACCGGTG
For the molecule B1, the Kd (two predicted stem-loops) was 5.6 ± 0.3 nM.

B2: hVap1_T1979 (structured_DNA)
DNA: TCTAGCCCACTGCATAGAGGTAGCCACGTATGTGGGTGTTACCCATTCGTAGCTACCGGTG
With B2, where the note is “predicted stem-loops”, the Kd is 1.7 ± 0.1 nM.

B3: hVap1_SST (structured_DNA)
DNA: TCTAGCCCACTGCATAGAGGTAGCTACCGGTG
Take B3: for the setting “stem-loop plus shortened second stem-loop”, the dissociation constant Kd came to 2.5 ± 0.2 nM.

The Kd is the constant that tells how readily two partners part at equilibrium.
